# B1: Disks large-associated protein 1 (Rattus norvegicus (Rat)), P97836-5 (parent)
# chain: MIDLFKAEWVSSVCVQVSRNGRTDQVWVPQDEWTGYTPRGKDDEIPCRRMRSGSYIKAMGDEDSGDSDTSPKPSPKVAARRESYLKATQPSLTELTTLKISNEHSPKLQIRSHSYLRAVSEVSINRSLDSLDPAGLLTSPKFRSRNESYMRAMSTISQVSEMEVNGQFESVCESVFSELESQAVEALDLPMPGCFRMRSHSYVRAIEKGCSQDDECVSLRSSSPPRTTTTVRTIQSSTGVIKLSSAVEAQSSTESAQDAYMDGQGQRGDMISQSGLSNSTESLDSMKALTAAIEAANAQIHGPASQHMGSNAAAVTTTTTIATVTTEDRKKDFKKNRCLSIGIQVDDAEESEKMAESKTSSKFQSVGVQVEEEKCFRRFTRSNSVTTAVQADLDFHDNLENSLESIEDNSCPGPMARQFSRDASTSTVSIQGSGNHYHACAADDDFDTDFDPSILPPPDPWIDSITEDPLEAVQRSVCHRDGHWFLKLLQAERDRMEGWCKQMEREERENNLPEDILGKIRTAVGSAQLLMAQKFYQFRELCEENLNPNAHPRPTSQDLAGFWDMLQLSIENISMKFDELHQLKANNWKQMDPLDKKERRAPPPVPKKPAKGPAPLIRERSLESSQRQEARKRLMAAKRAASVRQNSATESAESIEIYIPEAQTRL
# Variants of: B1
# Conditions: with Shank1, Q9WV48-4
# Shank1, Q9WV48-4, sequence (Q9WV48 other isoform, or with tags, fused parts or gaps): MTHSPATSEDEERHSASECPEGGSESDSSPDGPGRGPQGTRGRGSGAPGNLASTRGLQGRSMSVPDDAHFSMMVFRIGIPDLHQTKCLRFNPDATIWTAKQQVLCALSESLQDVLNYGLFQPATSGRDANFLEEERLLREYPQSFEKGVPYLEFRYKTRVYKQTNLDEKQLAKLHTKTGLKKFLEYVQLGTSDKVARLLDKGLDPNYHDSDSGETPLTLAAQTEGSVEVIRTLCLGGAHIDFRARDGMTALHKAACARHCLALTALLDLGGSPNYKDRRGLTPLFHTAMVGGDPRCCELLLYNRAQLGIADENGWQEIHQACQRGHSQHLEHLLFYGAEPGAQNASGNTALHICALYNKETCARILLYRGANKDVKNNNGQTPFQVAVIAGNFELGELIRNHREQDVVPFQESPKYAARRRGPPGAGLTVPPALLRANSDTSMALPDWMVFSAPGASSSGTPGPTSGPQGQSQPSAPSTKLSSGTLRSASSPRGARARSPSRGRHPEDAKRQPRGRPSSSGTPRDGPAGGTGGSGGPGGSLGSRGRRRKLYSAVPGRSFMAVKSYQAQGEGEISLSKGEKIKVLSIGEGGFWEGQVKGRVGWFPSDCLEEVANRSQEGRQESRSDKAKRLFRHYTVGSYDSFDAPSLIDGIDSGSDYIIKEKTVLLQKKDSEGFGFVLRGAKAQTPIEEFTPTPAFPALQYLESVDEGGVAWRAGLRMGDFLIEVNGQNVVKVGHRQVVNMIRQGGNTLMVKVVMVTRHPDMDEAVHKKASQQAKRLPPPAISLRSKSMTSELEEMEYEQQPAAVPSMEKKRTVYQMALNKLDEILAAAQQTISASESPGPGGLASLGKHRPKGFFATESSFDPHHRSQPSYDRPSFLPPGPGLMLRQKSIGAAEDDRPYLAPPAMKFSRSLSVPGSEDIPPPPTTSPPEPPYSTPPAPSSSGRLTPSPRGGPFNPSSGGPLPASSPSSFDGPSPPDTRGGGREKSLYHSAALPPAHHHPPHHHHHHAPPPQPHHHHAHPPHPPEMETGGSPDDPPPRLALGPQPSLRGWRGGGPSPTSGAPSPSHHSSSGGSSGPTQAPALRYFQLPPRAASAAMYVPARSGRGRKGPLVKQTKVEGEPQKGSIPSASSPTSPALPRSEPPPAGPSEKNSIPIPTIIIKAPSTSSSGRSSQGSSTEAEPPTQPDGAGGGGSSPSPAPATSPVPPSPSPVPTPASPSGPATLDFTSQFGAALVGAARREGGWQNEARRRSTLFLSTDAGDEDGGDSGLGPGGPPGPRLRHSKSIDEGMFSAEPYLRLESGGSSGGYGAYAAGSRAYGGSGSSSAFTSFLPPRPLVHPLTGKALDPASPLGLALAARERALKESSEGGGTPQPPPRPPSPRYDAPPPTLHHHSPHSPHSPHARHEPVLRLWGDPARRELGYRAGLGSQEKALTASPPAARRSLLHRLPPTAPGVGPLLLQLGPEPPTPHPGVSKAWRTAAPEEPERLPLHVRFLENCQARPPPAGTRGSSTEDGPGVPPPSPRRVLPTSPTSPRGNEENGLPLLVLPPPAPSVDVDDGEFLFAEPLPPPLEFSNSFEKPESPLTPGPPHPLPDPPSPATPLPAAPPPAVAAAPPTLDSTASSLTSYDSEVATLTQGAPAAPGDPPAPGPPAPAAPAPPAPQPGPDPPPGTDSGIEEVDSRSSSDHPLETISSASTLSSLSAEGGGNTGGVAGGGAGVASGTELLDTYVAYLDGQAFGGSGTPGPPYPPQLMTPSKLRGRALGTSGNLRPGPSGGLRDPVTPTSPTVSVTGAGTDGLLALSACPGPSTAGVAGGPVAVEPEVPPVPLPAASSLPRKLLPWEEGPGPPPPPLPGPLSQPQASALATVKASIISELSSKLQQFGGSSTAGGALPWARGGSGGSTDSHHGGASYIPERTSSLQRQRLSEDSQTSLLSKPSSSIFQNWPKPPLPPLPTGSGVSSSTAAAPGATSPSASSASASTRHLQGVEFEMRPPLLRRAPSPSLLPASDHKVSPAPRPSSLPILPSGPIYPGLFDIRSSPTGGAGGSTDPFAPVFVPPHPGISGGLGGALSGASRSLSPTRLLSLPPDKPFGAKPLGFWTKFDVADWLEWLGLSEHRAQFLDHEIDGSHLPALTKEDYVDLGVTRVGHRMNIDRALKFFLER
row,effect of a mutation on the interaction,Variant
1,decreasing interaction,L666V
2,disrupting interaction,L666A
3,decreasing interaction,T664S
4,disrupting interaction,T664A
5,decreasing interaction,R665D

# Reference: IntAct's records for PubMed 10433268
